The text below walks through data of patent US20170158755A1 (PROTHENA BIOSCIENCES, published 2017).

Experiment in all cases: flow cytometry on 293 cells displaying LAMA4 G-domain variants; % binding
For orientation: Flow cytometry measures light scatter and fluorescence of single cells or particles in a stream.

The target in assay [1] is T1, human LAMA4 G domain (LG1-5) displayed on 293 cells (human, UniProt Q16363 830-1821).
T1 construct: the vector's tags and membrane anchor are not written here; also called LAMA4-displaying human 293 cells; full length
T1 sequence: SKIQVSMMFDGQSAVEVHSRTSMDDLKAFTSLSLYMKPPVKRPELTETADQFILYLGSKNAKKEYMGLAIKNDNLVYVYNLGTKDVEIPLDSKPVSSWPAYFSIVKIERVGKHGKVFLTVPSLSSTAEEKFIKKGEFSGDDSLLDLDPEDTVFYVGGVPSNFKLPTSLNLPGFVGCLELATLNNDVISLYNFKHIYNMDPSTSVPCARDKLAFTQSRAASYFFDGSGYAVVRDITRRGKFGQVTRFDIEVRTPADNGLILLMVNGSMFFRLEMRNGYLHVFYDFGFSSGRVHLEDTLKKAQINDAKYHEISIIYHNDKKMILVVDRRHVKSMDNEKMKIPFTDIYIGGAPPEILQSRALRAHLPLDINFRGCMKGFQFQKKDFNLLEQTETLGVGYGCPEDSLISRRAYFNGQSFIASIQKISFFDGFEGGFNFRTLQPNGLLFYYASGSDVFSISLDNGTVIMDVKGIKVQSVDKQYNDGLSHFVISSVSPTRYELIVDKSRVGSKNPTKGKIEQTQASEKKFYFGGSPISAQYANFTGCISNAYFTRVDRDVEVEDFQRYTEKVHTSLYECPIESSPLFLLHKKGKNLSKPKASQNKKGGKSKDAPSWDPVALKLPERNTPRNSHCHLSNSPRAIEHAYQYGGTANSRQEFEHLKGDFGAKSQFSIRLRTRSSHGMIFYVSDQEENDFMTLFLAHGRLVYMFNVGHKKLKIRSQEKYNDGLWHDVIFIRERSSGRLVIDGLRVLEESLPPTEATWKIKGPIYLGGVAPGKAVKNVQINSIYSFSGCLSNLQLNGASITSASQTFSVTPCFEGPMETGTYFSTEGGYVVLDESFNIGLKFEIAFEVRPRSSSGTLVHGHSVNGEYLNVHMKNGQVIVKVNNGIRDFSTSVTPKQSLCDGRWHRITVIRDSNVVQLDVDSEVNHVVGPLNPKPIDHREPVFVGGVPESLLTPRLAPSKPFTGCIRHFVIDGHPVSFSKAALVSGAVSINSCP
The text has this:
(§1) LGde1 has a full-length G domain (i.e., LG1-5) with LG1 deleted, LGde2 has a full-length G domain with LG2 deleted, and LGde3 has a full-length G domain with LG3 deleted. Recombinant MCAM-Fc protein was able to specifically bind 293 cells expressing LAMA4 variants LG1-5, LG1-3, and LGde 1 (LG23), but not 293 cells expressing LAMA 4 variants LG4-5, LGde2 (LG13), or LGde3 (LG12).

Assay [2] has as its target T2, human LAMA4 LG1-3 modules displayed on 293 cells (human, UniProt Q16363 830-1430).
T2 construct: pDisplay construct on 293 cells; vector tags and anchor not written here
T2 sequence: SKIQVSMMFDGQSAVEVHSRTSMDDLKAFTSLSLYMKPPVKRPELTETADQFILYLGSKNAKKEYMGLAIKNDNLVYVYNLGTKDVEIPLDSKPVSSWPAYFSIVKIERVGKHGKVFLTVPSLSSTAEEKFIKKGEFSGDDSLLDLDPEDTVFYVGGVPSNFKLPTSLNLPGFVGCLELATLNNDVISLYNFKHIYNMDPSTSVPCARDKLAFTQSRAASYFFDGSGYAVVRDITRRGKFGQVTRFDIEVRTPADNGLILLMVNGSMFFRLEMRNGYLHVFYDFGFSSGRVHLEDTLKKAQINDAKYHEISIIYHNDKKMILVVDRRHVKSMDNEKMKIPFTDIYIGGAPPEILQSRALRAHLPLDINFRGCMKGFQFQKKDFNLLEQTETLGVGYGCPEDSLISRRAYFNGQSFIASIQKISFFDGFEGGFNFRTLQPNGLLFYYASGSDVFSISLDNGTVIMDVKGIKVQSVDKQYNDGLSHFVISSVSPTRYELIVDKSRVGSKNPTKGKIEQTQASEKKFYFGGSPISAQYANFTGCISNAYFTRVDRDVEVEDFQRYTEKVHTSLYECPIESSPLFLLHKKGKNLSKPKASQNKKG
Text: as §1

Assay [3] has as its target T3, human LAMA4 LG4-5 modules displayed on 293 cells (human, UniProt Q16363 1453-1821).
T3 construct: pDisplay construct on 293 cells; vector tags and anchor not written here
T3 sequence: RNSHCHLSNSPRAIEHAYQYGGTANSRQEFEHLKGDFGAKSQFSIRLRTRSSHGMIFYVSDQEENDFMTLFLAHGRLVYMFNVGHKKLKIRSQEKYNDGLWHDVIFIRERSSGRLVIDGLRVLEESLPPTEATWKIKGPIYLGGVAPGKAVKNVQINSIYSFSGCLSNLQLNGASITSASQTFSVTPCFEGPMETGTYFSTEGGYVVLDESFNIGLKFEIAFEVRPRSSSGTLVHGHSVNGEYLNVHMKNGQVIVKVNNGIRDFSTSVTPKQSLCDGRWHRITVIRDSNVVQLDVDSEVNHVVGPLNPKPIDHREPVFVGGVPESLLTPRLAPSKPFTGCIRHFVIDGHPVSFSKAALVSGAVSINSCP
Text: as §1

B1: mouse MCAM-Fc fusion protein (Fc fusion, UniProt Q8R2Y2 24-563, looked up)
chain: VPGEEKQPVPTPDLVEAEVGSTALLKCGPSRASGNFSQVDWFLIHKERQILIFRVHQGKGQREPGEYEHRLSLQDSVATLALSHVTPHDERMFLCKSKRPRLQDHYVELQVFKAPEEPTIQANVVGIHVDRQELREVATCVGRNGYPIPQVLWYKNSLPLQEEENRVHIQSSQIVESSGLYTLKSVLSARLVKEDKDAQFYCELSYRLPSGNHMKESKEVTVPVFYPAEKVWVEVEPVGLLKEGDHVTIRCLTDGNPQPHFTINKKDPSTGEMEEESTDENGLLSLEPAEKHHSGLYQCQSLDLETTITLSSDPLELLVNYVSDVQVNPTAPEVQEGESLTLTCEAESNQDLEFEWLRDKTGQLLGKGPVLQLNNVRREAGGRYLCMASVPRVPGLNRTQLVSVGIFGSPWMALKERKVWVQENAVLNLSCEASGHPQPTISWNVNGSATEWNPDPQTVVSTLNVLVTPELLETGAECTASNSLGSNTTTIVLKLVTLTTLIPDSSQTTGLSTLTVSPHTRANSTSTEKKLPQPESKGVV
notes: extracellular domain; Made in house; also called mMCAM-Fc; 650-conjugated mouse MCAM-Fc; not shown: human IgG1 (Fc part of the fusion)
On to B1, for which the binding result in assay [1] and in assay [2] was “binds” throughout.

B2: mouse monoclonal antibody 19C12 (antibody, V domains shown)
VH: QVQLQQSGAELVKPGASVKISCKASGYAFSTYWMNWVKQRPGEGLEWIGQIYPGDGDTNYNGKFKGKATLTADKSSSTAYMQLSSLTSEDSAVYFCARSDGYYDYWGQGTTLTVSS
VL: NIVLTQSPASLAVSLGQRATISCRASESVDSYGTSFMHWYQQKPGQPPKLLICLASSLESGVPARFSGSGSRTDFTLTIDPVEADDAATYYCQQNNEDPPTFGAGTKLELKR
notes: Mouse hybridoma antibody; Mouse IgG2b was used as its isotype control; also called m19C12
Consider B2, for which the binding result in assay [3] was “no binding”.
